# Test results reported in patent US5786462.
# How the values were obtained:
# [1] = test system: AMV reverse transcriptase (Avian myeloblastosis virus); settings: intramolecular 3' extension to end of template
# [2] = target: T1, HIV-1 reverse transcriptase (Human immunodeficiency virus 1) (UniProt P03366+P03366); assay: filter; settings: apparent Kd, HRT buffer 37 C
# [3] = target: T1, HIV-1 reverse transcriptase (Human immunodeficiency virus 1); assay: inhibition; settings: Ki' printed as ≤ 3 uM; almost no inhibition at 81 nM
Sequence,activity [1] [% initiation],Kd [2] [nM],Ki [3] [nM]
ATCCGCCTGATTAGCGATACTTACGTGAGCGTGCTGTCCCCTAAAGGTGATACGTCACTTGAGCAAAATCACCTGCAGGGG [RT26],50,–,–
ATCCGCCTGATTAGCGATACTNNNNNNNNNNNNNNNNNNNNNNNNNNNNNNNNNNNACTTGAGCAAAATCACCTGCAGGGG [RO degenerate ssDNA library],–,1400,> 3000
